These results are taken from the supplement of paper PMC9112550, “Optimization of the antimicrobial peptide Bac7 by deep mutational scanning” (BMC Biology, 2022).

The subject of this series is Escherichia coli TOP10. Description: shrunken log2 fold change of peptide-encoding DNA abundance (4.5 h post-induction vs induction); higher = less antimicrobial activity (less host growth inhibition). The note with it: time post-induction: 4.5 h; library: site-saturation at positions 5, 18, 19, 20.
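Further: peptides expressed intracellularly from a pBAD plasmid library in pooled LB shake-flask culture, induced with 0.3% L-arabinose, DNA abundance read by NGS, three biological replicates, DESeq2 with apeglm shrinkage.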

For the sequence RRIRGRPPRLPRPRPRPVAIPRP, the “shrunken log2 fold change” value was 0.949.
The figure for RRIRRRPPRLPRPRPRPRANPRP is 0.954; for RRIRARPPRLPRPRPRPVTQPRP it is 0.0996.
The figure for RRIRWRPPRLPRPRPRPDHYPRP is -0.023; for RRIRRRPPRLPRPRPRPPWRPRP it is 0.757; for RRIRNRPPRLPRPRPRPVTQPRP it is 0.0396.
Turning to RRIRGRPPRLPRPRPRPLSPPRP, the “shrunken log2 fold change” value came out at 0.435.
Next, RRIRNRPPRLPRPRPRPSMRPRP: 0.000173; RRIRKRPPRLPRPRPRPHMAPRP: -0.448; RRIRTRPPRLPRPRPRPLICPRP: -0.277.
Take RRIRDRPPRLPRPRPRPHHSPRP: the “shrunken log2 fold change” value is -1.11.
As to RRIRMRPPRLPRPRPRPMYNPRP, the “shrunken log2 fold change” value was -0.815.
Next, RRIRFRPPRLPRPRPRPWQPPRP: 0.0512; RRIRRRPPRLPRPRPRPQCMPRP: -0.0592; RRIRHRPPRLPRPRPRPAYRPRP: -0.00502.
Take RRIRNRPPRLPRPRPRPLSAPRP: the “shrunken log2 fold change” value was -0.097.
For RRIRMRPPRLPRPRPRPQAAPRP, the “shrunken log2 fold change” value was 0.87.
In the case of RRIRYRPPRLPRPRPRPNYKPRP, the “shrunken log2 fold change” value was -1.01.
The figure for RRIRCRPPRLPRPRPRPPRVPRP is 0.935; for RRIRFRPPRLPRPRPRPWDVPRP it is -0.0811; for RRIRTRPPRLPRPRPRPQLGPRP it is -0.0516.
For the sequence RRIRPRPPRLPRPRPRPTCLPRP, the “shrunken log2 fold change” value is -0.105.
The figure for RRIRLRPPRLPRPRPRPIFHPRP is -0.192; for RRIRVRPPRLPRPRPRPIMFPRP it is -0.0691; for RRIRKRPPRLPRPRPRPCHFPRP it is -0.0404.
For RRIRMRPPRLPRPRPRPVCQPRP, the “shrunken log2 fold change” value worked out at 0.13.
Take RRIRTRPPRLPRPRPRPWQCPRP: the “shrunken log2 fold change” value turned out to be 0.00408.
Turning to RRIRLRPPRLPRPRPRPWLTPRP, the “shrunken log2 fold change” value is -0.18.
As to RRIRFRPPRLPRPRPRPETNPRP, the “shrunken log2 fold change” value was determined as 0.127.
With RRIRYRPPRLPRPRPRPSMWPRP, the “shrunken log2 fold change” value is -1.68.
Turning to RRIRQRPPRLPRPRPRPTCCPRP, the “shrunken log2 fold change” value is -0.00785.
For the sequence RRIRMRPPRLPRPRPRPDDAPRP, the “shrunken log2 fold change” value worked out at 0.225.
Next, RRIRNRPPRLPRPRPRPTAMPRP: 0.285.
Next, RRIRDRPPRLPRPRPRPPVCPRP: 0.452; RRIRYRPPRLPRPRPRPAREPRP: 0.00627.
Next, RRIRCRPPRLPRPRPRPYHGPRP: -0.968; RRIRFRPPRLPRPRPRPPGNPRP: 0.0667; RRIRERPPRLPRPRPRPHEWPRP: -0.155.
Take RRIRRRPPRLPRPRPRPQQRPRP: the “shrunken log2 fold change” value came to 0.795.
On to RRIRIRPPRLPRPRPRPVWAPRP, for which the “shrunken log2 fold change” value is -0.0187.
Next, RRIRPRPPRLPRPRPRPRPSPRP: 0.333; RRIRGRPPRLPRPRPRPPLAPRP: 1.35; RRIRNRPPRLPRPRPRPHWWPRP: 0.127.
In the case of RRIRTRPPRLPRPRPRPWHLPRP, the “shrunken log2 fold change” value is -0.0134.
Next, RRIRQRPPRLPRPRPRPANPPRP: -0.234; RRIRERPPRLPRPRPRPWFMPRP: -0.688; RRIRKRPPRLPRPRPRPHCTPRP: -0.24.
Regarding RRIRGRPPRLPRPRPRPMFFPRP, the “shrunken log2 fold change” value came to 0.336.
As to RRIRCRPPRLPRPRPRPWDIPRP, the “shrunken log2 fold change” value was -0.179.
The figure for RRIRPRPPRLPRPRPRPDVEPRP is -0.0392.
On to RRIRKRPPRLPRPRPRPHTVPRP, for which the “shrunken log2 fold change” value is -0.407.
Next, RRIRMRPPRLPRPRPRPCWAPRP: 0.168.
Next, RRIRVRPPRLPRPRPRPNCAPRP: 0.289; RRIRDRPPRLPRPRPRPFTYPRP: -0.0134; RRIRGRPPRLPRPRPRPRVCPRP: 1.1.
The figure for RRIRQRPPRLPRPRPRPCIWPRP is -0.018; for RRIRNRPPRLPRPRPRPHVKPRP it is -0.17.
Turning to RRIRKRPPRLPRPRPRPEHVPRP, the “shrunken log2 fold change” value amounted to 0.0142.
Take RRIRKRPPRLPRPRPRPLRMPRP: the “shrunken log2 fold change” value was determined as 0.236.
Consider RRIRQRPPRLPRPRPRPNSGPRP, for which the “shrunken log2 fold change” value is -0.0316.
The figure for RRIRERPPRLPRPRPRPEFWPRP is 0.159; for RRIRMRPPRLPRPRPRPDKEPRP it is -0.01; for RRIRLRPPRLPRPRPRPDKRPRP it is -0.175.
On to RRIRFRPPRLPRPRPRPMAFPRP, for which the “shrunken log2 fold change” value is -0.126.
RRIRVRPPRLPRPRPRPFQMPRP: the “shrunken log2 fold change” value is -0.333.
Next, RRIRYRPPRLPRPRPRPLQYPRP: -0.624; RRIRHRPPRLPRPRPRPRWYPRP: -0.137.
For RRIRDRPPRLPRPRPRPGKSPRP, the “shrunken log2 fold change” value was found to be 0.0637.
The figure for RRIRFRPPRLPRPRPRPREMPRP is 0.286.
Next, RRIRMRPPRLPRPRPRPKLIPRP: -0.0987; RRIRKRPPRLPRPRPRPRDVPRP: 0.316; RRIRMRPPRLPRPRPRPNEGPRP: 0.137.
The figure for RRIRARPPRLPRPRPRPLGMPRP is 0.0985.
Regarding RRIRQRPPRLPRPRPRPSLKPRP, the “shrunken log2 fold change” value is -0.235.
For RRIRERPPRLPRPRPRPMFVPRP, the “shrunken log2 fold change” value was -0.285.
As for RRIRDRPPRLPRPRPRPAAMPRP, the “shrunken log2 fold change” value is 1.32.
Next, RRIRKRPPRLPRPRPRPRHWPRP: 0.0398.
With RRIRPRPPRLPRPRPRPSGEPRP, the “shrunken log2 fold change” value is 0.126.
For RRIRMRPPRLPRPRPRPDAPPRP, the “shrunken log2 fold change” value is 3.16.
Next, RRIRYRPPRLPRPRPRPDADPRP: 0.00911; RRIRMRPPRLPRPRPRPNEAPRP: 0.326.
The figure for RRIRDRPPRLPRPRPRPAPCPRP is 0.658.
Next, RRIRTRPPRLPRPRPRPVQCPRP: 0.00249.
For RRIRCRPPRLPRPRPRPVASPRP, the “shrunken log2 fold change” value amounted to 0.149.
On to RRIRARPPRLPRPRPRPMTLPRP, for which the “shrunken log2 fold change” value was 0.151.
Next, RRIRIRPPRLPRPRPRPDPSPRP: -0.0293.
For the sequence RRIRWRPPRLPRPRPRPRQCPRP, the “shrunken log2 fold change” value amounted to 0.137.
As for RRIRQRPPRLPRPRPRPYIHPRP, the “shrunken log2 fold change” value is -0.912.
Next, RRIRRRPPRLPRPRPRPLGCPRP: 0.166; RRIRVRPPRLPRPRPRPFQIPRP: -0.603; RRIRARPPRLPRPRPRPNARPRP: 0.124.
With RRIRLRPPRLPRPRPRPMMAPRP, the “shrunken log2 fold change” value is -0.137.
The figure for RRIRHRPPRLPRPRPRPTWYPRP is -0.674; for RRIRMRPPRLPRPRPRPMMWPRP it is 0.274.
In the case of RRIRKRPPRLPRPRPRPAVNPRP, the “shrunken log2 fold change” value was -0.0383.
Next, RRIRFRPPRLPRPRPRPVGKPRP: 0.13.
For the sequence RRIRQRPPRLPRPRPRPGAKPRP, the “shrunken log2 fold change” value was 0.177.
As to RRIRERPPRLPRPRPRPHDPPRP, the “shrunken log2 fold change” value was -0.0577.
The figure for RRIRARPPRLPRPRPRPEQGPRP is 0.388.
In the case of RRIRDRPPRLPRPRPRPWINPRP, the “shrunken log2 fold change” value came out at 0.0363.
Next, RRIRKRPPRLPRPRPRPKGWPRP: 0.61; RRIRPRPPRLPRPRPRPKLYPRP: 0.0311; RRIRFRPPRLPRPRPRPYEKPRP: -0.075.
The figure for RRIRHRPPRLPRPRPRPHFFPRP is -0.0737; for RRIRNRPPRLPRPRPRPYNIPRP it is -0.13; for RRIRSRPPRLPRPRPRPDRVPRP it is -0.144.
The figure for RRIRYRPPRLPRPRPRPFMKPRP is -0.272.
With RRIRARPPRLPRPRPRPMMGPRP, the “shrunken log2 fold change” value was 0.082.
Take RRIRQRPPRLPRPRPRPMWTPRP: the “shrunken log2 fold change” value worked out at 0.158.
Next, RRIRGRPPRLPRPRPRPPQIPRP: 0.859.
Next, RRIRDRPPRLPRPRPRPEHYPRP: -0.0548; RRIRIRPPRLPRPRPRPAAAPRP: 0.286.
The figure for RRIRQRPPRLPRPRPRPGEIPRP is -0.366; for RRIRARPPRLPRPRPRPECVPRP it is 1.07.
On to RRIRLRPPRLPRPRPRPWCNPRP, for which the “shrunken log2 fold change” value was -0.121.
For the sequence RRIRLRPPRLPRPRPRPCGEPRP, the “shrunken log2 fold change” value is 0.122.
The figure for RRIRPRPPRLPRPRPRPPRTPRP is 0.609; for RRIRRRPPRLPRPRPRPHNCPRP it is 0.163; for RRIRFRPPRLPRPRPRPPRVPRP it is 0.605.
Next, RRIRFRPPRLPRPRPRPATRPRP: 0.193; RRIRKRPPRLPRPRPRPASYPRP: -0.0778; RRIRVRPPRLPRPRPRPQMDPRP: -0.297.
The figure for RRIRKRPPRLPRPRPRPYWTPRP is -0.26; for RRIRPRPPRLPRPRPRPIMYPRP it is -0.175; for RRIRNRPPRLPRPRPRPCRPPRP it is -0.197.
